Target: EphA3 antigen (UniProt P29320)
Test: ELISA

Chain of UniProt P29320 (P29320 21-541 limits assumed): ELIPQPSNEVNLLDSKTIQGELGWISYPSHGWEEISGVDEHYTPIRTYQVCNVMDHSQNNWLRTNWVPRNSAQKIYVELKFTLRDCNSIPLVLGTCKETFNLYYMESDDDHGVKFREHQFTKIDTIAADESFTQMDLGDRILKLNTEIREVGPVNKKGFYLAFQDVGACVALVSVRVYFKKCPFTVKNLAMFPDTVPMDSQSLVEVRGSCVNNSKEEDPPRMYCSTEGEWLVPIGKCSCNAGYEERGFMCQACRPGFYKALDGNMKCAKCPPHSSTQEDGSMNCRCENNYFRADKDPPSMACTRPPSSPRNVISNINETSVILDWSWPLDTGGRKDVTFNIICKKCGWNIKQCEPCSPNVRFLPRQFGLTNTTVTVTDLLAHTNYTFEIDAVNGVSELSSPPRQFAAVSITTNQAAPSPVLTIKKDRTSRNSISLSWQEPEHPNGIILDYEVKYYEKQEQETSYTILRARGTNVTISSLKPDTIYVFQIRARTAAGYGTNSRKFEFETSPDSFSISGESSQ

In the case of monoclonal antibody IIIA4, the AFFINITY is reported as 2.5 nM.

From patent US20110243934A1
